Where a chain is given by its changes, count along the chain named. Names and notes keep the numbering of the source.
Tests used:
[1] = biological target: Archaeoglobus fulgidus malate dehydrogenase mutant 2 (P250I) (Archaeoglobus fulgidus); assay: SEC-MALS; SEC-MALLS with refractometry; Enrich 650 column, 50 mM Tris-HCl pH 7.2, 50 mM NaCl, room temperature, 50 ul at ~1 mg/ml, 0.5 ml/min; self-association (dimer)
[2] = biological target: Archaeoglobus fulgidus malate dehydrogenase mutant 1 (R102Q) (Archaeoglobus fulgidus); assay: as above
[3] = biological target: Archaeoglobus fulgidus malate dehydrogenase mutant 3 (R102Q and P250I) (Archaeoglobus fulgidus); assay: as above
[4] = substrate: CC(=O)C(=O)O; assay: purified protein; assay type: biochemical, Archaeoglobus fulgidus; conditions: 0.5 mM NADH, MES pH 6.0, 50 mM NaCl, 70 °C (340 K in Figure 3)
[5] = substrate: O=C(O)CC(=O)C(=O)O; assay: purified protein; assay type: biochemical, Archaeoglobus fulgidus; conditions: 0.5 mM NADH, 50 mM potassium phosphate pH 7.0, 50 mM NaCl
[6] = biological target: the molecule itself; assay: SEC-MALS; SEC-MALLS with refractometry; Enrich 650 column, 50 mM Tris-HCl pH 7.2, 50 mM NaCl, room temperature, 50 ul at ~1 mg/ml, 0.5 ml/min; self-association (dimer)
[7] = mutant 3, sigmoid (homotropic activation)
[8] = 70 °C (340 K in Figure 3), mutant 2, hyperbolic, text b25 gives 1.31 mM
[9] = 70 °C (340 K in Figure 3), substrate inhibition at excess OAA

Archaeoglobus fulgidus malate dehydrogenase mutant 2 (P250I) (enzyme)
stoichiometry N [1]: 2

Archaeoglobus fulgidus malate dehydrogenase mutant 1 (R102Q) (enzyme)
stoichiometry N [2]: 2

Archaeoglobus fulgidus malate dehydrogenase mutant 3 (R102Q and P250I) (enzyme)
stoichiometry N [3]: 2

B1: Wt A. fulgidus MalDH (Archaeoglobus fulgidus DSM 4304; P216I/R81Q) (protein)
chain: MKLGFVGAGRVGSTSAFTCLLNLDVDEIALVDIAEDLAVGEAMDLAHAAAGIDKYPKIVGGADYSLLKGSEIIVVTAGLAQKPGMTRLDLAHKNAGIIKDIAKKIVENAPESKILVVTNPMDVMTYIMWKESGKPRNEVFGMGNQLDSQRLKERLYNAGARNIRRAWIIGEHGDSMFVAKSLADFDGEVDWEAVENDVRFVAAEVIKRKGATIFGIAVAIYRMVKAVVEDTGEIIPTSMILQGEYGIENVAVGVPAKLGKNGAEVADIKLSDEEIEKLRNSAKILRERLEELGY
notes: full-length, codon-optimized synthetic gene in pET-20a (NdeI/BamHI), E. coli BL21 DE3 pLysS; no tag mentioned; homodimer, theoretical 72 kDa (SEC-MALLS 62-65 kDa)
K0.5 [4, 7]: 100 mM
kcat [4, 7]: 21 s⁻¹
kcat/Km [4, 7]: 210 M⁻¹ s⁻¹

B2: Wt A. fulgidus MalDH (Archaeoglobus fulgidus DSM 4304; P216I) (protein)
chain: B1 chain with Q81R
notes: as for B1
K0.5 [5, 8]: 1.3 mM
kcat [5, 8]: 175 s⁻¹
kcat/Km [5, 8]: 130000 M⁻¹ s⁻¹

B3: Wt A. fulgidus MalDH (Archaeoglobus fulgidus DSM 4304; R81Q) (protein)
chain: B1 chain with I216P
notes: as for B1
K0.5 ([5]; 70 °C, mutant 1, pH 7.0): 14 mM
kcat ([5]; 70 °C, mutant 1, pH 7.0): 12 s⁻¹
kcat/Km ([5]; 70 °C, mutant 1, pH 7.0): 900 M⁻¹ s⁻¹
K0.5 ([4]; mutant 1, pH 6.0): 5.6 mM
kcat ([4]; mutant 1, pH 6.0): 40 s⁻¹
kcat/Km ([4]; mutant 1, pH 6.0): 7100 M⁻¹ s⁻¹

B4: Wild-type Archaeoglobus fulgidus malate dehydrogenase (enzyme)
chain: B1 chain with Q81R, I216P
notes: synthetic gene codon-optimised for E. coli, in pET-20a (NdeI/BamHI); No tag is mentioned; purification was by heat treatment, ion exchange and gel filtration; Homodimer; also called Wt A. fulgidus MalDH; Wt enzyme; source: E. coli BL21 DE3 pLysS, purified (70 °C heat step, Q sepharose, gel filtration)
stoichiometry N [6]: 2
K0.5 [5, 9]: 0.1 mM
kcat [5, 9]: 417 s⁻¹
kcat/Km [5, 9]: 4.3e+06 M⁻¹ s⁻¹

— publication PMC9486893, “Protein Conformational Space at the Edge of Allostery: Turning a Nonallosteric Malate Dehydrogenase into an “Allosterized” Enzyme Using Evolution-Guided Punctual Mutations” (Molecular Biology and Evolution, 2022)
